According to patent US20240317847A1 (Bayer, published 2024):
Numbering of substitutions follows the chain as printed. Numbers in names are those of the source. Where “and” joins values, the source holds several entries; their conditions need not be identical. Identical values can stand only once.

T1: human IL-11 (human, UniProt P20809 22-199)
T1 sequence: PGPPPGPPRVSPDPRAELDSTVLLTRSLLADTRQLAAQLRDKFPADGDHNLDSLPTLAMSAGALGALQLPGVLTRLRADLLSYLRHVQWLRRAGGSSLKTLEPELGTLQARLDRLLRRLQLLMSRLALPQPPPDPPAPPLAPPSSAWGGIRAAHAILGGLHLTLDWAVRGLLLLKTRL

T2: murine IL-11 (mouse, UniProt P47873 22-199)
T2 sequence: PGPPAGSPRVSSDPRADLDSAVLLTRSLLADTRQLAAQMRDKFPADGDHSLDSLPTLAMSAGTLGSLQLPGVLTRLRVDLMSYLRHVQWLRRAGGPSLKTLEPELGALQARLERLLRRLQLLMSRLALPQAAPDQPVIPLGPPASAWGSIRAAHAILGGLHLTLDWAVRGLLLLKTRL

T3: human IL-11 (human, UniProt P20809 22-199)
T3 sequence: T1 sequence

T4: murine IL-11 (mouse, UniProt P47873 22-199)
T4 sequence: T2 sequence

T5: rat IL-11 (rat, UniProt Q99MF5 22-199)
T5 construct: Invigate, e.g. lot #C301019-19; also called rIL11
T5 sequence: T2 sequence with S50N, L84F, G94A, V137A, I138V

T6: cynomolgus IL-11 (cynomolgus, UniProt P20808 22-199)
T6 construct: Invigate, lot #C290621-19; also called cIL11; cynoL-11
T6 sequence: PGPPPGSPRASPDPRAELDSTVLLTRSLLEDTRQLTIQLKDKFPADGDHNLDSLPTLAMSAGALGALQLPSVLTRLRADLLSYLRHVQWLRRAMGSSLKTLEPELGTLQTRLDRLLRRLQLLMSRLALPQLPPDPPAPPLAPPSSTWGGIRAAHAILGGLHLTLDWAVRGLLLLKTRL

B1: TPP-31312 (antibody, IgG4, V domains shown)
VH: EVQLLESGGGLVQPGGSLRLSCAASGFTFSHYDMNWLRQAPGKGLEWVGVISYDGSNKFYADFVKGRFTISRDNSKNTLYLQMNSLRAEDTAVYYCARTPGSHFDYWGQGTLVTVSS
VL: QSVLTQPPSASGTPGQRVTISCSGSSSNIGNNAVNWYQQLPGTAPKLLIYYDDLLPSGVPDRFSGSKSGTSASLAISGLRSEDEADYYCSAWDDSLNGVVFGGGTKLTVL
notes: also called WT antibody; chimeric antibody
B2: TPP-31325 (antibody, human IgG4 S228P, lambda, V domains shown)
VH: B1 VH with E1Q, L5V, L11V, G16R, N35H, L37V, G49A, D54E, F63S
VL: QSVLTQPPSASGTPGQRVTISCSGSSSNIGSNYVNWYQQLPGTAPKLLIYYDDLRPSGVPDRFSGSKSGTSASLAISGLRSEDEADYYCSAWDDSLSGVVFGGGTKLTVLG
notes: hIgG4-SPLE, Lambda; also called final germline; FB with a back-mutation VL-A90S
B3: TPP-31328 (antibody, IgG4, V domains shown)
VH: B1 VH with E1Q, L5V, L11V, G16R, N35H, L37V, G49A, D54E, F59Y, F63S
VL: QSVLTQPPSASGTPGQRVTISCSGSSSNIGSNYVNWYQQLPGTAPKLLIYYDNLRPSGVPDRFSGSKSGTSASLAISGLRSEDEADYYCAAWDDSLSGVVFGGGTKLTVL
notes: hIgG4 SPLE, lambda; FB + 2, plus VH-F59Y & VL-D53N
B4: TPP-31324 (antibody, IgG4, V domains shown)
VH: B1 VH with E1Q, L5V, L11V, G16R, N35H, L37V, G49A, D54E, F63S
VL: B1 VL with N31S, A33Y, S90A, N97S
notes: hIgG4 SPLE, lambda; FB - 1, back mutation VL-R55L
B5: TPP-31326 (antibody, IgG4, V domains shown)
VH: B1 VH with E1Q, L5V, L11V, G16R, N35H, L37V, G49A, D54E, F59Y, F63S
VL: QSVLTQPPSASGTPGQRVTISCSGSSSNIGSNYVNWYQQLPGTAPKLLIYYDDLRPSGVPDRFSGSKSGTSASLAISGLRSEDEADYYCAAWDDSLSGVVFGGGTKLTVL
notes: hIgG4 SPLE, lambda; FB + 1, plus VH-F59Y
B6: TPP-31327 (antibody, IgG4, V domains shown)
VH: B1 VH with E1Q, L5V, L11V, G16R, N35H, L37V, G49A, D54E, F63S
VL: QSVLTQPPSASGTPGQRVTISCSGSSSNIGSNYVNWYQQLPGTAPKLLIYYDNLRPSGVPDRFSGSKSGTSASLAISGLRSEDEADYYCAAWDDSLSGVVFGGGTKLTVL
notes: hIgG4 SPLE, lambda; FB + 1, plus VL-D53N
B7: TPP-29391 (antibody, human IgG1, V domains shown)
VH: EVQLLESGGGLVQPGGSLRLSCAASGFTFSSYGMHWVRQAPGKGLEWVAVISYDGSYKYYADSVKGRFTISRDNSKNTLYLQMNSLRAEDTAVYYCAAGVPDYWGQGTLVTVSS
VL: QSVLTQPPSASGTPGQRVTISCSGSSSNIGSDYDVHWYQQLPGTAPKLLIYSNNERPSGVPDRFSGSKSGTSASLAISGLRSEDEADYYCAAWDSSLYGPVFGGGTKLTVL
B8: TPP-29389 (antibody, human IgG1, V domains shown)
VH: B7 VH
VL: B7 VL with D32Y, N54E, S95P
B9: TPP-29393 (antibody, human IgG1, V domains shown)
VH: B7 VH
VL: B7 VL with Y33L, N54E, S95D
B10: TPP-29382 (antibody, human IgG1, V domains shown)
VH: B7 VH
VL: B7 VL with Y33L, S95F
B11: TPP-29394 (antibody, human IgG1, V domains shown)
VH: B7 VH
VL: B7 VL with S95F
B12: TPP-29381 (antibody, human IgG1, V domains shown)
VH: B7 VH
VL: B7 VL with A91S, Y98S
B13: TPP-29399 (antibody, human IgG1, V domains shown)
VH: B7 VH
VL: B7 VL with Y98S
B14: TPP-29384 (antibody, human IgG1, V domains shown)
VH: B7 VH
VL: B7 VL with D32G, N54E, S95P, Y98S
B15: TPP-29397 (antibody, human IgG1, V domains shown)
VH: B7 VH
VL: B7 VL with G30W, D32G, N54E
B16: TPP-29392 (antibody, human IgG1, V domains shown)
VH: B7 VH
VL: B7 VL with G30W, N54E, Y98S
B17: TPP-29383 (antibody, human IgG1, V domains shown)
VH: B7 VH
VL: B7 VL with Y33L, N54E, S95P
B18: TPP-29396 (antibody, human IgG1, V domains shown)
VH: B7 VH
VL: B7 VL with G30W, N54E, S95F

Target: T1, human IL-11
Test: cell-based or functional assay

IC50, RGA [pM]	Binder
8900	B1
1200	B2
7900	B3
2900	B4
3600	B5
3100	B6

Target: T2, murine IL-11
Test: cell-based or functional assay

IC50, RGA [pM]	Binder
9800	B1
600	B2
2100	B3
1000	B4
3300	B5
2100	B6

Target: T3, human IL-11
Test: cell-based or functional assay

RGA Efficacy (%)	RGA IC50 [pM]	Binder
84	540	B7
87.3	840	B8
87.3	610	B9
81.4	640	B10
89.8	1700	B11
75.3	480	B12
70.2	730	B13
81.9	2800	B14
71	530	B15
80.2	1200	B16
86	1600	B17
78.9	650	B18

Target: T4, murine IL-11
Test: cell-based or functional assay

RGA Efficacy (%)	RGA IC50 [pM]	Binder
96.9		B7
97.4	290	B8
96.2	240	B9
87.5	260	B10
93.9	480	B11
94.8	450	B12
90		B13
97.2	330	B14
93.8	310	B15
89.3		B16
94.2	570	B17
96.1	390	B18

Target: T3, human IL-11
Test: SPR, antibody captured, IL-11 as analyte

Kd [pM]	Binder
360	B7
230	B8
660	B9
440	B10
1200	B11
620	B12
560	B13
980	B14
350	B15
920	B16
1100	B17
780	B18

Target: T5, rat IL-11
Test: SPR, antibody captured, IL-11 as analyte

Kd [pM]	Binder
71	B7
83	B8
180	B9
200	B10
370	B11
300	B12
530	B13
180	B14
57	B15
950	B16
310	B17
440	B18

Target: T4, murine IL-11
Test: SPR, antibody captured, IL-11 as analyte

Kd [pM]	Binder
170	B7
120	B8
390	B9
560	B10
650	B11
570	B12
930	B13
300	B14
110	B15
1100	B16
620	B17
700	B18

Target: T6, cynomolgus IL-11
Test: SPR, antibody captured, IL-11 as analyte

Kd [pM]	Binder
690	B7
910	B8
720	B9
460	B10
670	B11
430	B12
570	B13
860	B14
800	B15
850	B16
1300	B17
920	B18

Target: T1, human IL-11
Test: SPR, IgG captured via anti-human Fc, IL-11 as analyte
Procedure: (§1) Antibody binding affinity to hIL-11 (Invigate, Germany, e.g., lot #C121021-19) and mIL-11 (Invigate, Germany, e.g., lot #C210819-09) was detected using Biacore 8K. Each antibody was captured on an anti-human IgG Fc antibody immobilized CM5 sensor chip (GE). hIL-11 and mIL-11 at different concentrations (0, 5, 15.82 and 50 nM) in 1×HBS-EP+ (pH 7.4) (GE healthcare) were injected over the sensor chip at a flow rate of 30 μL/min for an association phase of 120 s, followed by 200 s dissociation phase. The chip was then regenerated by 10 mM Glycine, pH 1.5 after each binding cycle.
(§2) The sensorgrams of blank surface and buffer channel were subtracted from the test sensorgrams. The experimental data was fitted by 1:1 model using Langmiur analysis. Molecular weight of 19.3 kDa was used to calculate the molar concentration of human and mouse IL-11.
(§3) 16 AB were produced as described in Example 21 and binding of purified AB to human and mouse IL-11 was analyzed using SPR as described in Example 21.

Kd [pM]	Binder
5300	B1
590	B2
1800	B3
790	B4
1700	B5
1000	B6

Target: T2, murine IL-11
Test: as above
Procedure: as §1, §2, §3

Kd [pM]	Binder
9300	B1
350	B2
1800	B3
500	B4
1200	B5
850	B6

Target: T1, human IL-11
Test: cell-based or functional assay
Remark: another data set of the same source

IC50, RGA 1	IC50, RGA 2 [pM]	Binder
163000 pM and 171000 pM	80000	B1

Target: T2, murine IL-11
Test: cell-based or functional assay
Remark: another data set of the same source

IC50, RGA 1	IC50, RGA 2 [pM]	Binder
31000 pM and 75000 pM	20000	B1
